Data as given in article PMC10786891, “Massively parallel profiling of RNA-targeting CRISPR-Cas13d”.
Positions count from the first letter of the chain named. Numbers in names are those of the source.

T1: EsCas13d, nuclease-dead (Eubacterium siraeum, UniProt B0MS50, R295A;H300A;R849A;H854A)
T1 sequence: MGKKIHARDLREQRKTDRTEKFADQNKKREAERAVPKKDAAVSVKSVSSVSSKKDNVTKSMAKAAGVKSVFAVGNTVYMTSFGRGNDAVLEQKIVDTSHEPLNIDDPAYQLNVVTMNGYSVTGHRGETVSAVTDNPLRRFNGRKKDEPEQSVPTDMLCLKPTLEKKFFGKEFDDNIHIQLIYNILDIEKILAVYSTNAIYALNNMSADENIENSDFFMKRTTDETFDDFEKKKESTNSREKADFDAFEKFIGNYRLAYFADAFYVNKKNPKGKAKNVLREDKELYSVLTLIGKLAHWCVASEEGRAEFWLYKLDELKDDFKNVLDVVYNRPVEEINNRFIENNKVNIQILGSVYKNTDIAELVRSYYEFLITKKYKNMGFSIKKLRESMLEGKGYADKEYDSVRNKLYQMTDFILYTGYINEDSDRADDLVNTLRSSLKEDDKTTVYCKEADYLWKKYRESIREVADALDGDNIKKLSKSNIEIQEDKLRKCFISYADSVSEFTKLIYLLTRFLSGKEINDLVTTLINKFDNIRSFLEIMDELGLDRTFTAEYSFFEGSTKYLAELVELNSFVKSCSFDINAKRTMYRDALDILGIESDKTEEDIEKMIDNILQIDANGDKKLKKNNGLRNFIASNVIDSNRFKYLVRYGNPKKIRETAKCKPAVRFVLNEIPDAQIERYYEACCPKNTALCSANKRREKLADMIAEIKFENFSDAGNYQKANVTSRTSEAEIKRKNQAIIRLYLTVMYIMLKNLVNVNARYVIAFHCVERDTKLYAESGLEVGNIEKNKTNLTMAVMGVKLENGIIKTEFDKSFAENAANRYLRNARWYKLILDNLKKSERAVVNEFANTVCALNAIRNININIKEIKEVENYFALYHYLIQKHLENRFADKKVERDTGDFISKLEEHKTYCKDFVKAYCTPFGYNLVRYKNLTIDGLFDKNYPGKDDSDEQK

B1: target 1 MT 5'PFS UAA 3'PFS UCC (mixed)
RNA 1: CACCCGUGCAAAAAUGCAGGGGUCUAAAACUGAGCGGAUAACCUCUCUAUGG
RNA 2: GGGAAUGGAUCCACAUCUACGAAUUCUAACCAUAGAGAGGUUAUCCGCUCAUCCAGAUCGGAAGAGCACACGU
B2: target 1 MT 5'PFS CUC 3'PFS UGC (mixed)
RNA 1: B1 RNA 1
RNA 2: B1 RNA 2 with U27C, A28U, A29C, C53G
B3: target 1 MT 5'PFS UAA 3'PFS UCU (mixed)
RNA 1: B1 RNA 1
RNA 2: B1 RNA 2 with C54U
B4: target 1 MT 5'PFS UCC 3'PFS UGU (mixed)
RNA 1: B1 RNA 1
RNA 2: B1 RNA 2 with A28C, A29C, C53G, C54U
B5: target 1 MT 5'PFS UGG 3'PFS CCG (mixed)
RNA 1: B1 RNA 1
RNA 2: B1 RNA 2 with A28G, A29G, U52C, C54G
B6: target 1 MT 5'PFS UCA 3'PFS CGA (mixed)
RNA 1: B1 RNA 1
RNA 2: B1 RNA 2 with A28C, U52C, C53G, C54A
B7: target 1 MT 5'PFS AGU 3'PFS ACG (mixed)
RNA 1: B1 RNA 1
RNA 2: B1 RNA 2 with U27A, A28G, A29U, U52A, C54G
B8: target 1 MT 5'PFS GGG 3'PFS UAU (mixed)
RNA 1: B1 RNA 1
RNA 2: B1 RNA 2 with U27G, A28G, A29G, C53A, C54U
B9: target 1 MT 5'PFS AGU 3'PFS ACC (mixed)
RNA 1: B1 RNA 1
RNA 2: B1 RNA 2 with U27A, A28G, A29U, U52A
B10: target 1 insA 3' of 19,insA 3' of 7 (mixed)
RNA 1: B1 RNA 1
RNA 2: GGGAAUGGAUCCACAUCUACGAAUUCGUACCAUAAGAGAGGUUAUCACGCUCACCGAGAUCGGAAGAGCACACGU
B11: target 1 MT 5'PFS AGU 3'PFS ACA (mixed)
RNA 1: B1 RNA 1
RNA 2: B1 RNA 2 with U27A, A28G, A29U, U52A, C54A
B12: target 1 MT 5'PFS CCA 3'PFS UGC (mixed)
RNA 1: B1 RNA 1
RNA 2: B1 RNA 2 with U27C, A28C, C53G
B13: target 1 MT 5'PFS CCA 3'PFS UGA (mixed)
RNA 1: B1 RNA 1
RNA 2: B1 RNA 2 with U27C, A28C, C53G, C54A
B14: target 1 MT 5'PFS GGA 3'PFS CUG (mixed)
RNA 1: B1 RNA 1
RNA 2: B1 RNA 2 with U27G, A28G, U52C, C53U, C54G
B15: target 1 MT 5'PFS GGG 3'PFS UAG (mixed)
RNA 1: B1 RNA 1
RNA 2: B1 RNA 2 with U27G, A28G, A29G, C53A, C54G
B16: target 1 MT 5'PFS AGU 3'PFS ACU (mixed)
RNA 1: B1 RNA 1
RNA 2: B1 RNA 2 with U27A, A28G, A29U, U52A, C54U
B17: target 1 MT 5'PFS GGG 3'PFS UAC (mixed)
RNA 1: B1 RNA 1
RNA 2: B1 RNA 2 with U27G, A28G, A29G, C53A
B18: target 1 MT 5'PFS GGG 3'PFS UAA (mixed)
RNA 1: B1 RNA 1
RNA 2: B1 RNA 2 with U27G, A28G, A29G, C53A, C54A
B19: target 1 MT 5'PFS GGA 3'PFS CUU (mixed)
RNA 1: B1 RNA 1
RNA 2: B1 RNA 2 with U27G, A28G, U52C, C53U, C54U
B20: target 1 MT 5'PFS UAA 3'PFS AUG (mixed)
RNA 1: B1 RNA 1
RNA 2: B1 RNA 2 with U52A, C53U, C54G
B21: target 1 C2G,U10G (mixed)
RNA 1: B1 RNA 1
RNA 2: B1 RNA 2 with U27G, A28U, U42G, C50G, U52C, C54G
B22: target 1 MT 5'PFS UAA 3'PFS AUA (mixed)
RNA 1: B1 RNA 1
RNA 2: B1 RNA 2 with U52A, C53U, C54A
B23: target 1 MT 5'PFS UAA 3'PFS AUC (mixed)
RNA 1: B1 RNA 1
RNA 2: B1 RNA 2 with U52A, C53U
B24: target 1 MT 5'PFS UAG 3'PFS AGG (mixed)
RNA 1: B1 RNA 1
RNA 2: B1 RNA 2 with A29G, U52A, C53G, C54G
B25: target 1 MT 5'PFS UCA 3'PFS CGU (mixed)
RNA 1: B1 RNA 1
RNA 2: B1 RNA 2 with A28C, U52C, C53G, C54U
B26: target 1 MT 5'PFS GCC 3'PFS UUA (mixed)
RNA 1: B1 RNA 1
RNA 2: B1 RNA 2 with U27G, A28C, A29C, C53U, C54A
B27: target 1 MT 5'PFS GCC 3'PFS UUC (mixed)
RNA 1: B1 RNA 1
RNA 2: B1 RNA 2 with U27G, A28C, A29C, C53U
B28: target 1 MT 5'PFS GGC 3'PFS CAA (mixed)
RNA 1: B1 RNA 1
RNA 2: B1 RNA 2 with U27G, A28G, A29C, U52C, C53A, C54A
B29: target 1 MT 5'PFS GCC 3'PFS UUG (mixed)
RNA 1: B1 RNA 1
RNA 2: B1 RNA 2 with U27G, A28C, A29C, C53U, C54G
B30: target 1 MT 5'PFS GGC 3'PFS CAU (mixed)
RNA 1: B1 RNA 1
RNA 2: B1 RNA 2 with U27G, A28G, A29C, U52C, C53A, C54U
B31: target 1 MT 5'PFS GUU 3'PFS AUU (mixed)
RNA 1: B1 RNA 1
RNA 2: B1 RNA 2 with U27G, A28U, A29U, U52A, C53U, C54U
B32: target 1 insG 3' of 22,insG 3' of 6 (mixed)
RNA 1: B1 RNA 1
RNA 2: B10 RNA 2 with C31G, A32C, U33A, A34U, A47C, C48G
B33: target 1 insU 3' of 14,insA 3' of 8 (mixed)
RNA 1: B1 RNA 1
RNA 2: B10 RNA 2 with A35G, G36A, A37G, G38A, A39U, C46A, A47C
B34: target 1 MT 5'PFS GCC 3'PFS UUU (mixed)
RNA 1: B1 RNA 1
RNA 2: B1 RNA 2 with U27G, A28C, A29C, C53U, C54U
B35: target 1 MT 5'PFS GCC 3'PFS CAG (mixed)
RNA 1: B1 RNA 1
RNA 2: B1 RNA 2 with U27G, A28C, A29C, U52C, C53A, C54G
B36: target 1 MT 5'PFS UCA 3'PFS ACA (mixed)
RNA 1: B1 RNA 1
RNA 2: B1 RNA 2 with A28C, U52A, C54A
B37: target 1 MT 5'PFS UCA 3'PFS ACG (mixed)
RNA 1: B1 RNA 1
RNA 2: B1 RNA 2 with A28C, U52A, C54G
B38: target 1 MT 5'PFS GCU 3'PFS AUA (mixed)
RNA 1: B1 RNA 1
RNA 2: B1 RNA 2 with U27G, A28C, A29U, U52A, C53U, C54A
B39: target 1 MT 5'PFS GCU 3'PFS AUU (mixed)
RNA 1: B1 RNA 1
RNA 2: B1 RNA 2 with U27G, A28C, A29U, U52A, C53U, C54U

Biological target: T1, EsCas13d, nuclease-dead
Assay: crRNA (strand 1, pre-loaded); Mg2+; 40 mM Tris-HCl pH 7.5, 150 mM NaCl, 6 mM MgCl2, 1 mM DTT, 0.1% Tween-20, 0.2 mg/ml BSA; 25 C; 10 min per concentration, then washed
Conditions: tags: His6-TwinStrep-SUMO cleaved; N-terminal SNAP kept (SNAP-Surface 488); label: 3' end held by stalled T7 RNA polymerase

| Binder | Kd |
| --- | --- |
| B1 | 82.5 ± 27.5 nM |
| B2 | ~60 nM |
| B3 | 44.5 ± 15 nM |
| B4 | ~70 nM |
| B5 | 47 ± 9.5 nM |
| B6 | 12.2 ± 3.45 nM |
| B7 | 36 ± 10 nM |
| B8 | 16.7 ± 3.25 nM |
| B9 | ~80 nM |
| B10 | 15.2 ± 1.4 nM |
| B11 | 65 ± 29 nM |
| B12 | 3.55 ± 0.8 nM |
| B13 | 13 ± 4.5 nM |
| B14 | 11.3 ± 1.9 nM |
| B15 | 16.1 ± 2.1 nM |
| B16 | 38 ± 11 nM |
| B17 | 16.8 ± 2.75 nM |
| B18 | 17.4 ± 2.8 nM |
| B19 | 13 ± 4.5 nM |
| B20 | 57.5 ± 16 nM |

| Binder | Kd |
| --- | --- |
| B21 | 42 ± 7 nM |
| B22 | 47 ± 13.5 nM |
| B23 | 33 ± 10 nM |
| B24 | 65.5 ± 15 nM |
| B25 | 18.5 ± 6.5 nM |
| B26 | 12.5 ± 3.7 nM |
| B27 | 17 ± 5.5 nM |
| B28 | ~34 nM |
| B29 | 8.2 ± 1.1 nM |
| B30 | 15.7 ± 5.5 nM |
| B31 | 13.9 ± 2.3 nM |
| B32 | 51 ± 10 nM |
| B33 | 38.6 ± 3.2 nM |
| B34 | 9.4 ± 2 nM |
| B35 | 44 ± 21 nM |
| B36 | 13.2 ± 3.35 nM |
| B37 | ~65 nM |
| B38 | 57 ± 16 nM |
| B39 | 76 ± 31 nM |
